± gives the half width of the 95% confidence interval.
Test: folding stability dG unfold (combined trypsin and chymotrypsin); higher = more stable
Description: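 Folding stability of de novo designed mini-proteins (<80 aa, no Cys; designed by TrROS, TrMRF, ProteinMPNN and the joint model) was measured by cDNA display proteolysis with trypsin and chymotrypsin. Each protease was used at 11 concentrations in a threefold dilution series plus a no-protease condition. K50 was inferred by Bayesian fitting of sequencing counts, and dG unfold was derived against a sequence-predicted unfolded-state K50 (Tsuboyama et al. method). Sequences shown include variable-length N-terminal GS-type padding (SAGGSAGG...) inside a display construct carrying a PA tag. Rows were kept only if the AF2 dimer inter-PAE was >15, to exclude likely homo-oligomers.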

| Sequence | folding stability dG unfold |
| --- | --- |
| SAVKVEEKDDVTIKTYTEPEGGLELVETIDKNGNLIAKTEIKVERKPDAKGNLYVTKVSTKTTVLNPNPISA [r9_262_JUSTAS] | < -1 kcal/mol |
| SAGGSAGGSAPQRFNIVLEVKEPETGKTKVVKRTLSSEEEALKKIPEGLEVKKITVLPPDVPLSAGGSAGGS [r12_208_JUSTAS] | < -1 kcal/mol |
| SSLDDLSPEQAVDQAKFMVRMIRESRDNGKPEQYPKMINMLRRMASSAPPPDRKAVKEVLEEFKIPPEWFSA [r9_182_TrROS] | < -1 kcal/mol |
| SAGGSAGGSAGGPPPEKAAAYLVKYRNPDGGPLGTRPVELPPDRPEVEHDPSFVSVEVASAGGSAGGSAGGS [r10_675_JUSTAS] | < -1 kcal/mol |
| SAGGSAGGSAGGKIEVEEDPANGMYRVEIQFPENGKPIEVWVRPGRTLEKAKDKAKELMKSAGGSAGGSAGG [r7_138_TrROS] | < -1 kcal/mol |
| SAGGMKTIEYPVVMDEEEAVKLVEELVAKAKAEGEETVVKVEVYRIGKGPDGVPTREKLGTYEVEVPGSAGG [r13_974_JUSTAS] | < -1 kcal/mol |
| SAGLYLVKNKETKEIVTVPAENLSDEQLKAGFEVVKLPPVKINITVESAEEAEALAKLFPDKVEVTVNESAG [r14_638_TrROS_Hall] | < -1 kcal/mol |
| SAGGVSIEKDVTSSDELLAALPPDRPVRIEYTPPDGSSRELEVDPADLSLDIPAGVKYKVRIEVLPPESAGG [r13_461_JUSTAS] | < -1 kcal/mol |
| SAGGSAGGSAINLADIHEVEVEEIPEDPTAVYRVRARLPEPGVPVDFLLVRFPDGSVRFYGSAGGSAGGSAG [r3_234_TrMRF] | < -1 kcal/mol |
| SASLPEKLAKELLPEAKEIKILEVKTEPDPNSDRPVTTVKMEAELEGGKKKLTVTLSPGPLKIKVTPEPSAG [r14_397_JUSTAS] | < -1 kcal/mol |
| SAGGSAGGMKTIPLPGWTPEEFREVIKKHGGTFTIERPGGEKVTVDFTPDSEPPPEEPHTLIISSAGGSAGG [r6_304_JUSTAS] | < -1 kcal/mol |
| SAGGSAGGSAGGSPEELAAAIRAEGREAEIEVTPDEVTIRLTAPDGRRSTLTVPRAALASAGGSAGGSAGGS [r10_1029_JUSTAS] | < -1 kcal/mol |
| SAGGSAGGSAGGPTVTYKPPSGNVRTVEVPASRPEVVAELKAAGGEVVVVDAETGEEVLLSAGGSAGGSAGG [r7_430_JUSTAS] | < -1 kcal/mol |
| SAGGSAGGSAGVFWRIRMPGHTIPIPIEGDLNEAKDYIRDEMREHHGEPIDPDNIEIEIVSAGGSAGGSAGG [r11_1028_TrROS] | < -1 kcal/mol |
| SAGGSAGGSAGGSTPSGTLKEVSEEVEPDGIRITTTTYSLPNPGVFKTVVTVEPEAREESAGGSAGGSAGGS [r4_163_JUSTAS] | < -1 kcal/mol |
| SAGGGWEKIPITPNDKNQAKEIADEFADKLQQDPGIPKEVEIDVQPPPNNQYWIEVEYPGKKLEIPISAGGS [r16_356_TrROS] | < -1 kcal/mol |
| SANKFSPEEYAEWMIRTARRQVKENRQQGDPEKPKKVTIHFWEEHFPPYRKRIKKEAKEDGLPVEIEPPSAG [r14_908_TrROS] | < -1 kcal/mol |
| SAGMVKEVKSEEEAKKLPPGTLVKLTKPDPTSNKDVTYYRTYPDGSGGILAKSDSSGKVDLTPEIKKILSAG [r5_490_JUSTAS] | < -1 kcal/mol |
| SAGGSAGGSAASNGPLPVPLPETVIEAPLDEVPDEEIRARLPEELAEEFLRRMPPDATVLLSAGGSAGGSAG [r3_326_JUSTAS] | < -1 kcal/mol |

| Sequence | folding stability dG unfold |
| --- | --- |
| SASDEDQKKQQEQQKPPIKPPEFPVKLNGKKIEKIRFNPPTDRIWFEWPNGKEIPIDPGMSLEEILKKISAG [r14_59_TrROS] | < -1 kcal/mol |
| SAGGSAGGSAGYIMIKSPEMAEEMAKPGYEIEVEPVPPKDINNGDPNDTMYIIEIKPPGKSAGGSAGGSAGG [r11_168_TrROS] | < -1 kcal/mol |
| SAGGSAGGPPPLIVTIKLEHKREKPNGEPEKRKHEIIVDAPNEQADKLAKKMPPDNVEDVEIAKSAGGSAGG [r6_985_TrROS] | < -1 kcal/mol |
| SAGGMVVELPSGLSPEELERAAEEIAAELPRRGVDPVEVTIEPVREVAPPDGPPVRLYRITIDTVPPSAGGS [r16_266_JUSTAS] | < -1 kcal/mol |
| SAGGSAGGSAGGQPITLPDANNGFKEVEIMPTPKKWRITAENPETGQKKEFPIEDPEAVSAGGSAGGSAGGS [r10_772_TrROS] | < -1 kcal/mol |
| SAGGSAGGSAGGLTEEEILKKLGLSPDVELLEMPREPERGVYYVKVKKGEGPEEFVVEESAGGSAGGSAGGS [r10_17_JUSTAS] | < -1 kcal/mol |
| SAGGSAGGMPLRVDFRPSDSDEVTTRELPLTGDEEEARARVEAAAPPGVASVDLDPEAFRAAAASAGGSAGG [r6_889_JUSTAS] | < -1 kcal/mol |
| SAGGSAGGSAGGGSSMPLIPRKIETVEKPFRLPNGDVVIETTEIDTDADVEIPSVEVVLKSAGGSAGGSAGG [r7_213_JUSTAS] | < -1 kcal/mol |
| SAGAKLYTVKAPGSSELLKGLKEKGVEILGTEENVVVVKVPVVPPLTPEAIEEAKKEGLTLEEAIKKASAGG [r19_115_TrMRF] | < -1 kcal/mol |
| SAGGSAGGSAGSPSEVKYSEEVLEEPLPGGVPYRLVVRTRTVLEGDKVVEEEEETELVLLSAGGSAGGSAGG [r11_35_JUSTAS] | < -1 kcal/mol |
| SAGGSAEKPIPFGNYQIRIHEIDPKEGKITIHVPDNMPPNMKEQARDWLQERGLPIEVEPVPAEDISAGGSA [r15_570_TrROS] | < -1 kcal/mol |
| SAGGSAGGSASMKIAKEVRTDPNSDVTYRVEVYRLPGPNVLLVETTYPEGVELSLVEVDPPSAGGSAGGSAG [r3_123_JUSTAS] | < -1 kcal/mol |
| SAGGSAGGSAMPEEEKPPIVRTVVLQADGEPIVLTSKPDEEIKLPPSLANAVVLEEEVSPGLSAGGSAGGSA [r18_415_JUSTAS] | < -1 kcal/mol |
| SAGGSAGGSAGGPKIEIPMVHLHPNGTITVMRMKMEYDPNGKFEIKKMEMHTVPADDIKDSAGGSAGGSAGG [r7_521_TrROS] | < -1 kcal/mol |
| WIRIPNGQPFRIKAKMKNPDGDDRKHTGKIPMEELGQKNGRPITPEDILDEIKEEARDHGAPVEDVEIEYYS [r1_338_TrROS] | < -1 kcal/mol |
| SNAKDLARELFEEHGYPIEPESIDPDEDWVTFRFEPPGEPPYDISIDVDPEEGKLKVTIDPQNGYITIPVSA [r9_1119_TrROS] | < -1 kcal/mol |
| SAGGNKITIEVNMNPEEGYYMVPIEIPRRDPNGEPEKRKIEVMVPMSPNAQEKAKNLANKLGIDKIYSAGGS [r8_381_TrROS] | < -1 kcal/mol |
| SAGGGGMTVEPVAERRFPSGRRITFYRRELPTPTVLEDVVVEYPDGSVRTITVPVGEEAAAVAAVLASAGGS [r16_588_JUSTAS] | < -1 kcal/mol |
| SAGGSAGGSAGGMLPNPKTIKVPLKPGETKEKVKEEAEKKFPPGKITVTVSEDGTATVLVSAGGSAGGSAGG [r7_273_JUSTAS] | < -1 kcal/mol |

| Sequence | folding stability dG unfold |
| --- | --- |
| SAGGSAGGSAGGTIKELAKEAAKKNPGWVPIRIPLPNGNPWKIRVQVDEPGKNRIEIEPSAGGSAGGSAGGS [r10_395_TrROS] | < -1 kcal/mol |
| YEIKDVEFPPYEHPGQEYPMFKIEVKDENGKPKKKVYINPNSGQLIPPGQSLEDMPMPPPFRKFAKELADES [r1_354_TrROS] | < -1 kcal/mol |
| MKIVIDKDGNIRIEIIDKDGKKITLTLPVKTLEEALQKIKDLIRELFPDAKDLKVKVVEVKDGYVVIEVEPS [r1_389_TrROS_Hall] | > 6 kcal/mol |
| SAGGSAGGSAVLRSALDRPVPVLLLTVPRDEVPEEEIRSLLPPELAEQFLKTAPKDSVIVASAGGSAGGSAG [r3_326_TrMRF] | < -1 kcal/mol |
| SAGGSAGGSAGGIYEKAVEFAKAKGGKDIPVKIKYPDGSVKTLNVDDLPDLKSENVEIVPSAGGSAGGSAGG [r7_863_TrMRF] | < -1 kcal/mol |
| SAGGSAGGSAGPKEPIYYRLRIEPPNGETREFEFPVGASVEDIAKEFNIPPGGRVELEPVSAGGSAGGSAGG [r11_340_TrROS] | < -1 kcal/mol |
| SAGGSAGGSNPDNNFPPRPKEPIKFPGEGMKIWVYKNHGHIFMEPPPGERQMGTIDPEDGKIVSAGGSAGGS [r12_420_TrROS] | < -1 kcal/mol |
| SAGGSAGGSAGMLYRALVPHPDGSFSTALSEDARELERELLEATGIPPENIKIEPIPLETSAGGSAGGSAGG [r17_169_TrMRF] | < -1 kcal/mol |
| SAGGSAGGSAGSPPDQTVTITTTVVTTETTTYPGTPGVTVPRTVVTTVPVTLPVTDPALLSAGGSAGGSAGG [r11_734_JUSTAS] | < -1 kcal/mol |
| SAGGSAGGSAGGGKNRPVIPITEGDKDEAKEFADTFQKEWRRQNGEPAQNVDIDIVPTPSAGGSAGGSAGGS [r10_1216_TrROS] | < -1 kcal/mol |
| SAGGSAGGMKITEVTSEAPVPETGEVVRVAKTEDGSTITTVEYPGTGETRVYREKPDEVTPIALSAGGSAGG [r6_796_JUSTAS] | -0.865 ± 0.79 kcal/mol |
| SAGGGSSMSPISDQQTSSSLPDGTTVTRTTTTYPTSVLVTTTTTDPATGAPTTTTTTYTTPGSSVAGSAGGS [r16_419_JUSTAS] | < -1 kcal/mol |
| SAGGSAGGSAGGSRKINIFFDDPEQARKFAREIRNEGLPPEDMPIKVEITPIPPEDMGASAGGSAGGSAGGS [r4_281_TrROS] | < -1 kcal/mol |
| SAGPKINLYRLPNGFLAAKSRSTRPDGKELGTWEKTYLVPGSGKPRTLELPIYDNEKGYVIYAYEEDYSAGG [r19_185_TrMRF] | < -1 kcal/mol |
| SMTLEEALANPEKLAEELAPPPTPAVDEEIDIVDPLTNTTRPARATVLLEPGRRVIVLPEDGAEYPVDPESA [r9_548_JUSTAS] | < -1 kcal/mol |
| SAGGMIVLEFTDPSELEKLEEKVEEIKEELIKEGIKPPNVEIKVTRTTRKLPNGTERYTAPVSIKLPSAGGS [r16_591_JUSTAS] | < -1 kcal/mol |
| SAGGSAGGSAGDKPIKIFWNPEFPGRVYIKTPDKERPVPLNDLEELGIDEVVPMEEAMEQSAGGSAGGSAGG [r17_88_TrROS] | < -1 kcal/mol |
| SAGGSAGGSAGGSGELTMMMVEPNPDGRVKVRTFKIELPPGGLKIDEVEEKTIPPEDAKSAGGSAGGSAGGS [r4_389_TrROS] | < -1 kcal/mol |
| SAGGSAGGSAGPPVPKLFKVKEVTYHPGPKTVTVKTENGETITVPPGVAENVPPGGYLAASAGGSAGGSAGG [r11_124_TrMRF] | < -1 kcal/mol |
